Data as given in patent US20120283173A1 (UNIVERSITATSKLINIKUM HAMBURG EPPENDORF, published 2012).

Legend:
[1] = biological target: T1, Pseudomonas aeruginosa lectin PA-IL (Pseudomonas aeruginosa, UniProt Q05097 2-122); assay: cell-based or functional assay
T1 sequence (looked up): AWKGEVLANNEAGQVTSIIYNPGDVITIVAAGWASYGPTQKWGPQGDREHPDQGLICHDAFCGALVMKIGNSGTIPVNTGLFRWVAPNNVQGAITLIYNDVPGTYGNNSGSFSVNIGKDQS

[2] = biological target: Pseudomonas aeruginosa lectin PA-IIL (Pseudomonas aeruginosa); assay: cell-based or functional assay

Row | Binder | IC50 of inhibition of the PA-IL-induced decrease of ciliary beat frequency (CBF) [1] | IC50 of inhibition of the PA-IIL-induced decrease of ciliary beat frequency (CBF) [2]
1 | FLHTRLFV [HNK-1 mimetic peptide pHNK-1] | 484 µM | 968 µM
2 | TVFHFRLL [peptide sHNK-1 (scrambled version of pHNK-1)] | 968 µM | 
